*1 amine or outer side, *2 acyl side, *3 side chain or, on linkers, in order; H or OH if unused. Bridges are numbered along the chain shown (N, C = ends). Where no end group is shown, it is not given here. [ ]: non-standard residue; d: D form. TATA = O=C(CC[*:1])N1CN(C(=O)CC[*:2])CN(C(=O)CC[*:3])C1; 1Nal = N[C@@H](Cc1cccc2ccccc12)C(=O)O; Cya = N[C@@H](CS(=O)(=O)O)C(=O)O; Hyp = O=C(O)[C@@H]1C[C@@H](O)CN1; dCya = N[C@H](CS(=O)(=O)O)C(=O)O; hArg = N=C(N)NCCCC[C@H](N)C(=O)O; Agb = N=C(N)NCC[C@H](N)C(=O)O; βAla = NCCC(=O)O; Sar = CNCC(=O)O

To fix the notation:
T1: human Nectin-4 (human, UniProt Q96NY8 32-349)
T1 construct: a Gly32-Ser349 FLAG construct is described only under the SPR assay; also called PVRL4
T1 sequence (looked up): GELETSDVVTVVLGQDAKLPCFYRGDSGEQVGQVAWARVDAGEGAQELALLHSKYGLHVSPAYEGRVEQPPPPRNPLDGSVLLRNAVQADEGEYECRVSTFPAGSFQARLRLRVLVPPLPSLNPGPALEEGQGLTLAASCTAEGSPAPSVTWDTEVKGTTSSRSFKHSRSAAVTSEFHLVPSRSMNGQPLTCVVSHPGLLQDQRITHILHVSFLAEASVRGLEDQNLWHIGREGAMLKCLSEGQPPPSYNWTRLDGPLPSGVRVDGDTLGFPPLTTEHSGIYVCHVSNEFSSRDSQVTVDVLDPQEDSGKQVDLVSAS

T2: Human Nectin-4 (residues Gly32-Ser349) with C-terminal FLAG tag, biotinylated (human, UniProt Q96NY8 32-349, randomly biotinylated with EZ-Link Sulfo-NHS-LC-LC-Biotin)
T2 construct: range 32-349; Captured through biotin on a streptavidin CM5 chip in the SPR assay; also called PVRL4; not shown: C-terminal FLAG tag
T2 sequence (looked up): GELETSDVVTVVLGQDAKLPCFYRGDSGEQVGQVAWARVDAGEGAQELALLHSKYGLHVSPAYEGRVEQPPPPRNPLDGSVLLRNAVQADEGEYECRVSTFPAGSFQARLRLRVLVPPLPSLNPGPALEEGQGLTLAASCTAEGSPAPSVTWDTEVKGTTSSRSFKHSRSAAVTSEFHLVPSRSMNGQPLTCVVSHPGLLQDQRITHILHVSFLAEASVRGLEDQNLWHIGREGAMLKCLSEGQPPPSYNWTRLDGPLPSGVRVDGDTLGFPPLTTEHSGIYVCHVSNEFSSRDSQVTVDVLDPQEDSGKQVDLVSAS

B1: BCY488 (peptide)
peptide: ACWPLDSYWCARICA
modifications: linker 2-10-14 via TATA; not fully specified
notes: Direct FP used peptides with a fluorescent tag; also called 80-10-00
B2: BCY3406 (peptide)
peptide: ACVTTSYDCWVTLGHCSRF
modifications: linker 2-9-16 via TATA; not fully specified
notes: Direct FP used peptides with a fluorescent tag; also called 80-11-08-T01
B3: BCY472 (peptide)
peptide: ACVTTSYDCWVRLGQCA
modifications: linker 2-9-16 via TATA; not fully specified
notes: Direct FP used peptides with a fluorescent tag; also called 80-11-01
B4: BCY471 (peptide)
peptide: ACVTTSYDCFLHLLGCA
modifications: linker 2-9-16 via TATA; not fully specified
notes: Direct FP used peptides with a fluorescent tag; also called 80-11-00
B5: BCY462 (peptide)
peptide: VDWCAPLDDYWCDRICA
modifications: linker 4-12-16 via TATA; not fully specified
notes: Direct FP used peptides with a fluorescent tag; also called 80-10-12-T01

The first test has as its target T1, human Nectin-4. Description: FP direct binding, fluorescent peptide. The method, then:
Affinity of the peptides of the invention for human Nectin-4 (Ki) was determined using a fluorescence polarisation assay, in accordance with the methods disclosed in WO 2016/067035. […] Measurements were conducted on a BMG PHERAstar FS equipped with an “FP 485 520 520” optic module which excites at 485 nm and detects parallel and perpendicular emission at 520 nm. The PHERAstar FS was set at 25° C. with 200 flashes per well and a positioning delay of 0.1 second, with each well measured at 5 to 10 minute intervals for 60 minutes. […] Data was analysed using Systat Sigmaplot version 12.0. mP values were fit to a user defined quadratic equation to generate a Kd value: f=ymin+(ymax−ymin)/Lig*((x+Lig+Kd)/2-sqrt((((x+Lig+Kd)/2)\hat{ }2)-(Lig*x))).
By Ki is commonly meant the dissociation constant of the complex between target and ligand, obtained from inhibition or displacement. In turn, B1 yielded a Ki of 208 nM.
In turn, B2 displayed a Ki of 30 nM.
B3 returned an inhibition constant (Ki) of 502 nM.
carboxyfluorescein-CPF[dD]CM[hArg]NWSTPIWC (linker 1-5-15 via TATA) [BCY8208] registered a Ki of 745 nM. The Ki values of the last two molecules are within 1.5-fold of each other.
Molecule B4 had a Ki of 888 nM.
With ACPFGCMKNWSWPIWCA (linker 2-6-16 via TATA; not fully specified (N-terminus), also called FI-A-(SQ ID NO: 1)-A) [80-09-02-N006], the Ki was found to be 5 nM.
In turn, QKWCAPLSDYWCNRICA (linker 4-12-16 via TATA; not fully specified, also called 80-10-13-T01) [BCY3400] yielded an inhibitory constant (Ki) of 72 nM.
B5 showed a Ki of 269 nM.

For a further test, the target named is T2, Human Nectin-4 (residues Gly32-Ser349) …. As to the kind of experiment: SPR (Biacore), biotinylated human Nectin-4 on streptavidin chip.
Description: Biacore experiments were performed to determine kₐ (M⁻¹s⁻¹), kd (s⁻¹), KD (nM) values of monomeric peptides binding to human Necin-4 protein (obtained from Charles River).
For analysis of peptide binding, a Biacore 3000 instrument was used utilising a CM5 chip (GE Healthcare). Streptavidin was immobilized on the chip using standard amine-coupling chemistry at 25° C. with HBS-N (10 mM HEPES, 0.15 M NaCl, pH 7.4) as the running buffer. Briefly, the carboxymethyl dextran surface was activated with a 7 minute injection of a 1:1 ratio of 0.4 M 1-ethyl-3-(3-dimethylaminopropyl) carbodiimide hydrochloride (EDC)/0.1 M N-hydroxy succinimide (NHS) at a flow rate of 10 μl/min. For capture of streptavidin, the protein was diluted to 0.2 mg/ml in 10 mM sodium acetate (pH 4.5) and captured by injecting 120 μl of streptavidin onto the activated chip surface. Residual activated groups were blocked with a 7 minute injection of 1 M ethanolamine (pH 8.5) and biotinylated Nectin-4 captured to a level of 1,200-1,800 RU. Buffer was changed to PBS/0.05% Tween 20 and a dilution series of the peptides was prepared in this buffer with a final DMSO concentration of 0.5%. The top peptide concentration was 100 nM with 6 further 2-fold dilutions. The SPR analysis was run at 25° C. at a flow rate of 50 μl/min with 60 seconds association and dissociation between 400 and 1,200 seconds depending upon the individual peptide. Data were corrected for DMSO excluded volume effects. All data were double-referenced for blank injections and reference surface using standard processing procedures and data processing and kinetic fitting were performed using Scrubber software, version 2.0c (BioLogic Software). Data were fitted using simple 1:1 binding model allowing for mass transport effects where appropriate.
As a reminder, the Kd is a measure of binding affinity in units of concentration. Lower therefore signals higher affinity. Ac-CP[1Nal][dR]CMPDWSTP[Hyp]WC (linker 1-5-15 via TATA, Bicyclic peptide cyclised with TATA) [BCY8193] yielded a Kd of 1.3 nM.
Take {Ac-βAla}-[Sar][Sar][Sar][Sar][Sar]CP[1Nal][dD]CM[hArg]DWSTPIWC (linker 6-10-20 via TATA, Bicyclic peptide cyclised with TATA) [BCY8123]: binding was characterised by a dissociation constant (Kd) of 2.66 nM.
The same measure, in the same setting: the figure for Ac-CP[1Nal][dD]CL[hArg]DWSTPIWC (linker 1-5-15 via TATA, Bicyclic peptide cyclised with TATA) [BCY8211] is 7.32 nM.
Same read-out and setting: in the case of Ac-CP[1Nal][dD]CM[hArg]NWSTPIWC (linker 1-5-15 via TATA, Bicyclic peptide cyclised with TATA) [BCY8030] it was 1.71 nM; in that of {Ac-βAla}-[Sar][Sar][Sar][Sar][Sar][Sar][Sar][Sar][Sar][Sar]CP[1Nal][dCya]CM[Cya]DWSTP[Hyp]WC (linker 11-15-25 via TATA, Bicyclic peptide cyclised with TATA) [BCY8279], 3.31 nM.
Ac-CP[1Nal][dR]CM[Hyp]DWSTP[Hyp]WC (linker 1-5-15 via TATA, Bicyclic peptide cyclised with TATA) [BCY8194] had a Kd of 1.9 nM.
The same measure, in the same setting: in the case of {Ac-βAla}-[Sar][Sar][Sar][Sar][Sar]CPF[dA]CM[hArg]NWSWPIWC (linker 6-10-20 via TATA, Bicyclic peptide cyclised with TATA) [BCY7559] it was 14.9 nM.
{Ac-βAla}-[Sar][Sar][Sar][Sar][Sar][Sar][Sar][Sar][Sar][Sar]CP[1Nal][dCya]CM[hArg]DWSTP[Hyp]WC (linker 11-15-25 via TATA, Bicyclic peptide cyclised with TATA) [BCY8276] came in with an equilibrium dissociation constant (Kd) of 0.86 nM.
The same measure, in the same setting: the figure for CPF[dD]CM[hArg]NWSTPIWC (linker 1-5-15 via TATA, Bicyclic peptide cyclised with TATA) [BCY7793] is 47 nM; for Ac-CP[1Nal][dR]CM[hArg]DWSTPIWC (linker 1-5-15 via TATA, Bicyclic peptide cyclised with TATA) [BCY8215] it is 1.62 nM; for {Ac-βAla}-[Sar][Sar][Sar][Sar][Sar]CP[1Nal][dD]CM[hArg]DWSTP[Hyp]WC (linker 6-10-20 via TATA, Bicyclic peptide cyclised with TATA) [BCY8122] it is 0.89 nM.
The molecule Ac-CP[1Nal][dD]CL[hArg]DWSTP[Hyp]WC (linker 1-5-15 via TATA, Bicyclic peptide cyclised with TATA) [BCY8212] returned a Kd of 2.42 nM.
As for Ac-CP[1Nal][dR]CM[hArg]HWSTP[Hyp]WC (linker 1-5-15 via TATA, Bicyclic peptide cyclised with TATA) [BCY8129], binding was characterised by a dissociation constant (Kd) of 0.87 nM. Compared with the last molecule, the Kd is about 2.8-fold lower.
Turning to Ac-CP[1Nal][dR]CM[hArg]NWSTP[Hyp]WC (linker 1-5-15 via TATA, Bicyclic peptide cyclised with TATA) [BCY8128], the Kd turned out to be 1.06 nM.
In turn, Ac-CP[1Nal][dD]CM[hArg]HWSTP[Hyp]WC (linker 1-5-15 via TATA, Bicyclic peptide cyclised with TATA) [BCY8125] returned a Kd of 0.52 nM.
As for Ac-CP[1Nal][dR]CL[hArg]HWSTP[Hyp]WC (linker 1-5-15 via TATA, Bicyclic peptide cyclised with TATA) [BCY8214], the Kd came out at 0.54 nM. The Kd values of the last two molecules are within 1.5-fold of each other.
{Ac-βAla}-[Sar][Sar][Sar][Sar][Sar]CP[1Nal][dD]CM[hArg]HWSTP[Hyp]WC (linker 6-10-20 via TATA, Bicyclic peptide cyclised with TATA) [BCY8121]: binding was characterised by a dissociation constant (Kd) of 0.53 nM.
The same measure, in the same setting: the figure for Ac-CP[1Nal][dD]CM[hArg]NWSTP[Hyp]WC (linker 1-5-15 via TATA, Bicyclic peptide cyclised with TATA) [BCY8124] is 0.69 nM; for {Ac-βAla}-[Sar][Sar][Sar][Sar][Sar]CP[1Nal][dD]CM[hArg]NWSTP[Hyp]WC (linker 6-10-20 via TATA, Bicyclic peptide cyclised with TATA) [BCY8120] it is 0.67 nM; for Ac-CP[1Nal][dR]CL[hArg]DWSTP[Hyp]WC (linker 1-5-15 via TATA, Bicyclic peptide cyclised with TATA) [BCY8213] it is 1.95 nM.
For the molecule {Ac-βAla}-[Sar][Sar][Sar][Sar][Sar][Sar][Sar][Sar][Sar][Sar]CP[1Nal][dD]CM[Cya]DWSTP[Hyp]WC (linker 11-15-25 via TATA, Bicyclic peptide cyclised with TATA) [BCY8277], the Kd stood at 5.99 nM.
Still for that read-out and setting: the figure for Ac-CP[1Nal][dR]CM[hArg]DWSTP[Hyp]WC (linker 1-5-15 via TATA, Bicyclic peptide cyclised with TATA) [BCY8184] is 0.56 nM.
On to Ac-CP[1Nal][dR]CM[Agb]DWSTP[Hyp]WC (linker 1-5-15 via TATA, Bicyclic peptide cyclised with TATA) [BCY8192], for which binding was characterised by a dissociation constant (Kd) of 1.81 nM.
Ac-CP[1Nal][dD]CM[hArg]DWSTPIWC (linker 1-5-15 via TATA, Bicyclic peptide cyclised with TATA) [BCY8127]: binding was put at a Kd of 1.84 nM.
On to Ac-CP[1Nal][dD]CMPDWSTP[Hyp]WC (linker 1-5-15 via TATA, Bicyclic peptide cyclised with TATA) [BCY8182], for which the Kd was 0.96 nM. Against the preceding molecule, the Kd is about 1.9-fold lower.
Same read-out and setting: in the case of [βAla][Sar][Sar][Sar][Sar][Sar][Sar][Sar][Sar][Sar][Sar]CP[1Nal][dD]CMKDWSTP[Hyp]WC (linker 12-16-26 via TATA, Bicyclic peptide cyclised with TATA) [BCY8238] it was 3.88 nM; in that of Ac-CP[1Nal][dCya]CM[hArg]DWSTP[Hyp]WC (linker 1-5-15 via TATA, Bicyclic peptide cyclised with TATA) [BCY8163], 0.61 nM; in that of Ac-CPF[dD]CL[hArg]NWSTPPWC (linker 1-5-15 via TATA, Bicyclic peptide cyclised with TATA) [BCY8038], 44.5 nM.

The next test concerns the target T1, human Nectin-4. Description: FP competition, tracer SEQ ID NO 217. The method, then:
Peptides were diluted to an appropriate concentration in assay buffer as described in the direct binding assay with a maximum of 5% DMSO, then serially diluted 1 in 2. […] Measurements were conducted as for the direct binding assay, however the gain was determined prior to the first measurement. Data analysis was in Systat Sigmaplot version 12.0 where the mP values were fit to a user defined cubic equation to generate a Ki value: […]
Molecule QKWCAPLSDYWCNRICA (linker 4-12-16 via TATA; not fully specified, also called 80-10-13-T01) [BCY3400] displayed a Ki of 47 nM.
